Assay results published in patent publication US20220265819A1 (GEN2 NEUROSCIENCE, published 2022).

B1: Clone 31 (VH5Vκ2), humanised variant of clone #28, human IgG1 (antibody, V domains shown)
VH: QVQLQESGPGLVKPSETLSLTCTVSGFSLNNYDMSWVRQAPGKGLEWIGTVSTTYRRYYASWAKGRFTISRDNSKNTLDLQMTSLTAEDTATYFCAASGIWGRGTLVTVSS
VL: AQVLTQSPSTLSASVGDRVTITCQSSQRVYSNYLAWYQQKPGQPPKRLIFLASTLESGVPSRFSGSGSGTEFTLTISSLQPDDFATYYCAGTYTGSIWAFGGGTKVEIK
notes: also called VH5VK2; VH5Vk2
B2: Clone 27 (VH4Vκ2), humanised variant of clone #28, human IgG1 (antibody, V domains shown)
VH: QVQLQESGPGLVKPSETLSLTCTVSGFSLNNYDMSWVRQAPGKGLEWIGTVSTTYRRYYASWAKGRFTISKDTSSTTVDLQMTSLTAEDTATYFCAASGIWGRGTLVTVSS
VL: AQVLTQSPSTLSASVGDRVTITCQSSQRVYSNYLAWYQQKPGQPPKRLIFLASTLESGVPSRFSGSGSGTEFTLTISSLQPDDFATYYCAGTYTGSIWAFGGGTKVEIK
notes: also called VH4VK2; VH4Vk2
B3: Clone 28 (VH4Vκ4), humanised variant of clone #28, human IgG1 (antibody, V domains shown)
VH: QVQLQESGPGLVKPSETLSLTCTVSGFSLNNYDMSWVRQAPGKGLEWIGTVSTTYRRYYASWAKGRFTISKDTSSTTVDLQMTSLTAEDTATYFCAASGIWGRGTLVTVSS
VL: DIQMTQSPSTLSASVGDRVTITCQSSQRVYSNYLAWYQQKPGQPPKRLIFLASTLESGVPSRFSGSGSGTEFTLTISSLQPDDFATYYCAGTYTGSIWAFGGGTKVEIK
notes: also called VH4VK4; VH4Vk4
B4: Clone 32 (VH5Vκ4), humanised variant of clone #28, human IgG1 (antibody, V domains shown)
VH: QVQLQESGPGLVKPSETLSLTCTVSGFSLNNYDMSWVRQAPGKGLEWIGTVSTTYRRYYASWAKGRFTISRDNSKNTLDLQMTSLTAEDTATYFCAASGIWGRGTLVTVSS
VL: DIQMTQSPSTLSASVGDRVTITCQSSQRVYSNYLAWYQQKPGQPPKRLIFLASTLESGVPSRFSGSGSGTEFTLTISSLQPDDFATYYCAGTYTGSIWAFGGGTKVEIK
notes: also called VH5VK4; VH5Vk4
B5: Clone 24 (VH3Vκ4), humanised variant of clone #28, human IgG1 (antibody, V domains shown)
VH: QVQLQESGPGLVKPSETLSLTCTVSGFSLNNYDMSWVRQAPGKGLEWIGTVSTTYRRYYASWAKGRFTISKTSSTTVDLQMTSLTAEDTATYFCAASGIWGRGTLVTVSS
VL: DIQMTQSPSTLSASVGDRVTITCQSSQRVYSNYLAWYQQKPGQPPKRLIFLASTLESGVPSRFSGSGSGTEFTLTISSLQPDDFATYYCAGTYTGSIWAFGGGTKVEIK
notes: also called VH3VK4; VH3Vk4
B6: Clone 6 rabbit monoclonal IgG (antibody, V domains shown)
VH: QSVEESGGRLVTPGTPLTLTCTVSGFSLSSYDMSWVRQAPGKGLEWIGTIGRYYNTYYATWAKGRFTISKTSSTTVDLKMTSLTTEDTATYFCASSGIWGPGTLVTVSL
VL: AQVLTQTASPVSAAVGGTVTINCQSSQTVYNNNYLSWYQQKPGQPPKRLIYLASTLESGVPSRFSGSGSGTQFTLTISGVVCDDAATYYCAGTYSGSIWAFGGGTEVVVKG
notes: Rabbit IgG expressed in HEK293F; also called P2-C11; A4
B7: Clone 4 rabbit monoclonal IgG (antibody, V domains shown)
VH: QSVEESGGRLVTPGTPLTLTCTVSGFSLSSYDMSWVRQAPGKGLEWIGTIGRYYNTYYATWAKGRFTISKTSSTTVDLKMTSLTTEDTATYFCASSGIWGPGTLVTVSL
VL: AQVLTQTASPVSAAVGGTVTINCQSSQTVYNNNYLSWYQQKPGQPPKRLIYLASTLESGVPSRFSGSGSGTQFTLTISGVVCDDAATYYCAGTYSGSIWAFGGGTEVVVKG
notes: Rabbit IgG expressed in HEK293F; also called P2-E5; B3
B8: Clone #28 VH0VK0 chimeric human IgG1 (rabbit VH and VK of Clone 1) (antibody, V domains shown)
VH: QSLEESGGGLVKPGGTLTLTCTVSGFSLNNYDMSWVRQAPGKGLEWIGTVSTTYRRYYASWAKGRFTISKTSSTTVDLKMTSLTTEDTATYFCAASGIWGPGTLVTVSL
VL: AQVLTQTTSPVSAAVGGTVTINCQSSQRVYSNYLAWYQQKPGQPPKRLIFLASTLESGVPSRFSGSGSGTQFTLTISDLECDDAATYYCAGTYTGSIWAFGGGTEVVVK
notes: also called VH0Vκ0; #28 VH0κ0
B9: Clone 21 (VH2Vκ5), humanised variant of clone #28, human IgG1 (antibody, V domains shown)
VH: QSLQESGPGLVKPSETLSLTCTVSGFSLNNYDMSWVRQAPGKGLEWIGTVSTTYRRYYASWAKGRFTISKTSSTTVDLQMTSLTAEDTATYFCAASGIWGRGTLVTVSS
VL: DIQMTQSPSTLSASVGDRVTITCQSSQRVSSSYLAWYQQKPGQPPKRLIFLASTLESGVPSRFSGSGSGTEFTLTISSLQPDDFATYYCAGTYTGSIWAFGGGTKVEIK
notes: also called VH2VK5

What was measured:
[1] = target: full length pHrodo-labelled aggregated (P301S) 2N4R tau (human, UniProt P10636 1-758, labelled with pHrodo Red Maleimide); test: cell-based or functional assay
[2] = target: full length pHrodo-labelled monomeric (P301S) 2N4R tau (human, UniProt P10636 1-758, labelled with pHrodo Red Maleimide); test: cell-based or functional assay
Bovine serum albumin [3] = target: T1, Bovine serum albumin (bovine, UniProt P02769 25-607); test: ELISA on 1% BSA, HEK supernatant, anti-human IgG-HRP, n=1
T1 construct: Negative control antigen in ELISA; also called BSA
Protocol: (§1) Antigen was removed from wells and the plates were then blocked for 1 hour at RT with 5% dried milk in 1×TBS. Blocking solution was removed, HEK293 cell supernatant (1:100 in 1% BSA/1×TBS) was added to relevant wells, and plates were incubated for 1 hour at RT with gentle shaking. Plates were then washed four times with TBS/0.1% Tween (TBST). Goat-anti-human IgG-HRP antibody (ThermoFisher Scientific, Waltham, Mass. USA), diluted 1:2000 in 5% milk/TBS, was added to each well and plates were incubated for 1 hour at RT with gentle shaking before being washed four times with TBST. 3,3′,5,5′-tetramethylbenzidine (TMB) ELISA solution was added to each well and plates were incubated for 15 mins at RT. An equal volume of 1 M sulfuric acid was added to each well and OD was measured at 450 nm.

[4] = target: T2, full length recombinant human 2N4R tau (amino acids 1-441) (human, UniProt P10636 1-758); test: SPR Biacore SCK, IgG on Protein A, tau analyte
T2 construct: Bought (rPeptide); recombinant, non-phosphorylated; also called recombinant tau
Protocol: (§2) 23.5 Assessment of antibody binding to tau (Biacore SCK analysis): Binding of anti-tau hIgG1 to full length recombinant 2N4R tau (Rpeptide; SEQ ID NO: 2) was assessed using the Biacore T200 (GE Healthcare, Chicago, Ill., USA) running Biacore T200 Evaluation Software V2.0.1. hIgG1 were immobilised on a Protein A capture sensor chip in running buffer (HBS-EP+ buffer containing 1 mg/mL BSA) at 25° C. captured to ˜50 RU at 10 μL/min. For single-cycle kinetics experiments, recombinant 2N4R tau was flowed at concentrations ranging from 5 nM to 40 nM (2-fold dilutions) with an association time of 150 s and a dissociation time of 200 s. Curves were compared to a reference cell that was mock immobilized (no antibody present).
Data were analysed using Langmuir (1:1) binding analysis, describing a 1:1 interaction at the surface: […]

[5] = target: T2, full length recombinant human 2N4R tau …; test: SPR Biacore MCK, purified IgG on Protein A, tau analyte
Protocol: Biacore multi-cycle kinetics (MCK) analyses for antibody binding to recombinant (non-phosphorylated) 2N4R tau are summarised in FIG. 23 and Table 8. […] Slight variations in RMAX are considered likely to be due to differences in ligand capture and not reflective of significant variation in antibody binding characteristics.
as §2, with “24.2” for “23.5”, “MCK” for “SCK”, “For single-cycle kinetics experiments, recombinant 2N4R tau was flowed at concentrations ranging from 5 nM to 40 nM (2-fold dilutions) with an association time of 150 s and a dissociation time of 200 s.” left out

[6] = target: T2, full length recombinant human 2N4R tau …; test: ELISA, HEK293F supernatant on coated tau
Protocol: as §1, with “removed. HEK293F” for “removed, HEK293”, “(10 μg/mL, to 0.0001 μg/mL” for “(1:100”, “Anti-rabbit” for “Goat-anti-human”, “(Sigma. St Louis, Mo.,” for “(ThermoFisher Scientific, Waltham, Mass.”, “1:5000” for “1:2000”

Bovine serum albumin [7] = target: T1, Bovine serum albumin; test: ELISA on 1% BSA, HEK293F supernatant, anti-rabbit IgG-HRP, n=1
Protocol: FIG. 9. A panel of anti-tau IgG bind to linear immunogen peptide and full length recombinant 2N4R tau in ELISA format. […] Binding of anti-tau IgG was detected using an HRP-conjugated anti-rabbit secondary antibody and data shown are from a representative experiment (n=1).
as §1, with “removed. HEK293F” for “removed, HEK293”, “(10 μg/mL, to 0.0001 μg/mL” for “(1:100”, “Anti-rabbit” for “Goat-anti-human”, “(Sigma. St Louis, Mo.,” for “(ThermoFisher Scientific, Waltham, Mass.”, “1:5000” for “1:2000”

T1 sequence (P02769 25-607 limits assumed): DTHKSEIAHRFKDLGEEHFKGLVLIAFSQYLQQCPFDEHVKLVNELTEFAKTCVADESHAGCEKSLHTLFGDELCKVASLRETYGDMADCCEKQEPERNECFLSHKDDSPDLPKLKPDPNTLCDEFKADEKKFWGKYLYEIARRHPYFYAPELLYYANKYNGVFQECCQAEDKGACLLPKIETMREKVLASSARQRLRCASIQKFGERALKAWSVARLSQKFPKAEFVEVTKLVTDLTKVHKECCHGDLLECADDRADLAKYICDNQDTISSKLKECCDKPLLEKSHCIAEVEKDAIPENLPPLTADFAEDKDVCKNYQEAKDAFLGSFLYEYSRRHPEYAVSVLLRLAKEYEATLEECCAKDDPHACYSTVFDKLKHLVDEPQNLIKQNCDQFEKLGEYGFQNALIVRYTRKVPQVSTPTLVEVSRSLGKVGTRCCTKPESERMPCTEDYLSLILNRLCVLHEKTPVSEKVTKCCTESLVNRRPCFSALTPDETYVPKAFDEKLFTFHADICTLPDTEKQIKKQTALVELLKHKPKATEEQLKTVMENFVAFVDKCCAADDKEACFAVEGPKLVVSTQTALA
T2 sequence (P10636 other isoform, or with tags, fused parts or gaps limits assumed): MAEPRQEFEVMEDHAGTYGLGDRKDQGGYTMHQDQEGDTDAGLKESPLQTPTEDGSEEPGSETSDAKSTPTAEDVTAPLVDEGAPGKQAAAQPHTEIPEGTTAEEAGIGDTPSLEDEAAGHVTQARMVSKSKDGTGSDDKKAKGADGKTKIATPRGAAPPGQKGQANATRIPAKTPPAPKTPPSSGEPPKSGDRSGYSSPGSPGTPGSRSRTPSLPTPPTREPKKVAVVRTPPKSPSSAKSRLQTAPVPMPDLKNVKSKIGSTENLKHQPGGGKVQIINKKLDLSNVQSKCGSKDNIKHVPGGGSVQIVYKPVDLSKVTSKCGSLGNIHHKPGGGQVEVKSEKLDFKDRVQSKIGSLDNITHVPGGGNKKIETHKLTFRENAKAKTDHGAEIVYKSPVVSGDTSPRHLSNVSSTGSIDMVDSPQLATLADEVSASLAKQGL
full length pHrodo-labelled aggregated (P301S) 2N4R tau, sequence (P10636 other isoform, or with tags, fused parts or gaps P301S P301S): as the sequence (P10636 other isoform, or with tags, fused parts or gaps limits assumed) above, with P301S counted along it
full length pHrodo-labelled monomeric (P301S) 2N4R tau, sequence (P10636 other isoform, or with tags, fused parts or gaps P301S P301S): as the sequence (P10636 other isoform, or with tags, fused parts or gaps limits assumed) above, with P301S counted along it

Binder	increase of uptake of aggregated tau into human iPSC-derived microglia [1] [% increase]	inhibition of uptake of aggregated tau into human iPSC-derived astrocytes [1] [% inhibition]	inhibition of uptake of aggregated tau into human iPSC-derived neurons [1] [% inhibition]	inhibition of uptake of monomeric tau into human iPSC-derived astrocytes [2] [% inhibition]	inhibition of uptake of monomeric tau into human iPSC-derived neurons [2] [% inhibition]	binding result (Bovine serum albumin [3])	Kd [4] [nM]	Relative KD [4] [fold vs VH0VK0]	koff [4] [s⁻¹]	kon [4] [M⁻¹ s⁻¹]	Kd [5] [nM]	Relative KD [5] [fold vs VH0VK0]	koff [5] [s⁻¹]	kon [5] [M⁻¹ s⁻¹]	OD (ELISA) [6] [OD]	binding result (Bovine serum albumin [7])
B1	133	27.8	57.2	26.7	57.3	no binding (tested: supernatant 1:100)	96.5	2.13	0.00362	37500	34.8	1.4	0.00321	92400		
B2	179		58.7		66.5	no binding (tested: supernatant 1:100)	68.6	1.51	0.00308	44800	44	1.77	0.0026	59100		
B3	246	29.1	58.7	42	61.5	no binding (tested: supernatant 1:100)	49	1.08	0.00234	47700	26.9	1.08	0.00186	69200		
B4	243	45.7	41.3	45.7	64.2	no binding (tested: supernatant 1:100)	67.3	1.49	0.00239	35500	33.6	1.35	0.00239	71100		
B5	267	30.8	61.4	31.5	63.3	no binding (tested: supernatant 1:100)	21.2	0.47	0.00146	68900	17.1	0.69	0.0013	76100		
B6															0.3	no binding (tested: supernatant 1:50)
B7															0.3	no binding (tested: supernatant 1:50)
B8						no binding (tested: supernatant 1:100)	45.3	1	0.00342	75400	24.9	1	0.00249	99900		
B9						no binding (tested: supernatant 1:100)	136	3	0.00523	38500						
